Data from the nanobody polyreactivity screen of Harvey et al. (2022).

test: yeast display, Sf9 membrane polyspecificity reagent, FACS + sequencing; frameworks hold sequencing errors
How it was run: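 A nanobody's polyreactivity label depends on the gate it was sorted from. Yeast display cells were stained with 10% biotinylated, detergent-solubilized Sf9 membrane reagent for 1 hour at 4 °C, enriched on streptavidin microbeads and sorted by FACS. The low and high (top ~1%) gates were set on anti-HA fluorescence for expression and streptavidin fluorescence for reagent binding.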

Row | Sequence | polyreactivity (PSR sort gate)
1 | QVQLVESGGGLVQAGGSLRLSCAASGSIFYPNAMRWYRQAPGKQRELVAVITGGATTYYADSVKGRFTISRDYAKNTVYLQRNSLNPEDTAVDYCAADSAENVYRGYDWGQGTQVTVSS | low polyreactivity
2 | QDQLVESGGGLVQPGGSLRLSCAASGTIIPRSAMGWYRQATGKERELVAAISQRGGSTFYADSVKWRFTISRDNAKNTVYLQMNRLKPEVTAVYYCAADPGVQRGHIDRMYYWGQGTQVTVSS | high polyreactivity
3 | QVQLEESGGGLVQAGGSLRLSCAASGRIFPINTMGWYRQAPGKERELVAAISSNGGRTYYADSVKGRFTISRDNAKNTVYLQMNSLKPEDTAVYYCAADAGYYWPGYYYWGQGTQVTVSS | high polyreactivity
4 | QVQLVESGGGLVQAGGSLRLSCAASGITFMFYAMGWSRQAPGKVRELVAAISSSGGTTYYADSVKGRFTISRDNAKNTVYLQMNSLTPEDTAVYYCAARRVLASWYDYNYWGQGTQVTVSS | high polyreactivity
5 | QVQLVESGGGLGQAGGSLRLSCAASGLIFNIYARGWYSQAPGKDRELVATIRYSGGSTNYADSVKGRVTISRDNAKNTVNLQMKSLNPEDTAVYYCNAGYYPTGYDYWGQGTQVTVSS | low polyreactivity
6 | QVQLVESGGGLVQAGGSLRLSCAASGSTFWWYAMGWYRQAPGKERELVATISWSTGSTYYADSVKGRFTISRDNAKNTVYLQMNSLKPEDTAVYYCNARIFYLFPGNSWSSSDYDYWGQGTQVTVSS | low polyreactivity
7 | QVQLVESGGGLVQAGGRLRLSCAASGFTFSVYPMGWYIQAPGKERELVAAISWSGGSTYYADSVKGRFTISRDNAKNTVYVQMNSLKPEDTAVYYCNAYFSYKYRYPEDYWGQGTQVTVSS | high polyreactivity
8 | QVQLVESGGGLVQAGGSLRLSCASSGSTFSYYTMGWNRQAPGKERELVAAITRSGGRTYYADSVKGRFTISRDNAKNTVYLQMNSLKPEDTAVYNCAAYRANSGEFDYWGQGTQVTVTS | high polyreactivity
9 | QVQLVESGGGLVQAGGSLRLSCAASGFTFLGYDMGWYRQAPGKERELVATISSGGRTYYADSVKGRFTISRDNAKNTVYLQMNSMKPEDTAVYYFAAPRFRRLDFDFWGQGTQVTVSS | low polyreactivity
10 | QVHLVESGGGLVQAGGSLRLSCAASGIIFYYNAMGWYRQAPGKERELVAVISSAGNTNYADSVKGRFTISRDNAKNTVYLQMNCLKPEDTAVYYCAAGTISRIDERNYFKMDYWGQGTQVTVSS | low polyreactivity
11 | QVQLVESGGGLVQAGGSLRLSCAASGITFYGYAMGWYRQAPGKERELVARISSGGTTKYADSVKGRFTISRDNAKNTVYLQMNSLKPEDTAVYYCAVGGYWWYYGFYYWGQGTQVTVSS | high polyreactivity
12 | QVQLVESAGYLVQAAASLRLSCAASGLIFVYYALGWYRQAPGKERELVAFITSVGSTYYGDSVKGRFTISRDNAKYTVYLQMNSVNPEDTAVYYCAAEWEFYGFDYWGQGTQVTVSA | low polyreactivity
13 | QVQLVESGGGLVQAGGSLRLSCAASGFIFRYYTMGWYRQAPGKERELVATITSGGSTYYADSVKGRFTISRDNAKNTVYVQMNSLKPEDTAVYYCAKVRDVLWRFNYWGQGTQVTVSS | high polyreactivity
14 | QVQLVESGGGLVQAGGSLRLSFAASGFTFGWYAMGWYRQAPGKGRELVAAISGGDSRTYADSVKGRFTISRDNAKNTVYLQMNSLKPADTAVYYCNAENRQLYWWTVARSHYGYWGQGTQVTVSS | low polyreactivity
15 | QVQLVESGGGLVQAGGSLRLSCAASGRISVRIYAMGWYRQAPGKERELVAIIARSGGSTYYADSVKGRFTISRDNAKHTVYLPMNSLKPADTAVYYCAAGYRTRRGLGYYYWGQGTQVTVSS | high polyreactivity
16 | QVQLVESGGGLVQAGGSLRLSCAASGRTFYFYVMGWYRQAPGKERELVASITSGGSTNYADSVKGRFTISRDNAKNTVYLQMNSLKPEDTAVYYCAAALPASTSGTQPYDYWGQGTQVTVSS | low polyreactivity

Row | Sequence | polyreactivity (PSR sort gate)
17 | QVQLVESGGGLVQAGGSLRLSCAATGRIFGRNAMGWYRQAPGKERELVAAINSGVSTYYADSVKGRFTISRDNAKNTVYLQMNSLKPQDTAVYYCANAPPRRYYDFDYWGQGTQVTVSS | low polyreactivity
18 | QVQLVESGGGLVQAGGSLRLSWAASGSIFFFNAMGWYRQAPGKEREFVAAITSSSGRTYYADSVKGRFTISRDNAKNTVYLQMNRLKPEDTAVYYCAAQVPEDTETVDYWGQGTQVTVSS | low polyreactivity
19 | QVQLVESGGGLVQAGGSLRLICAASGSIRYYAMGWYTQAPGKEREFVAAISRRGSSTNYADSVKGRFTISRDNAKNTVYLQMNSLNPEDTAVYNCAAAARAGLKRYYYWGQGTQVTVSS | high polyreactivity
20 | QVQHVESGGGLVQAGGSLRLSCAASGRIFYSNTMGWYRQAPGKERELVAAITWRGGRTHYADSVKGRFTISRDNAKNTVYLQMNSLKPEDTAVYYCAARYIPIQYPSYRTWGGYSWGQGTQVTVSS | high polyreactivity
21 | QVQLVESGGGLVQAGGSLRLSCAASGSIFLSYAMGWYRQAPGKERELVAAITGSGGSTYYADSVKGRFTISRDNAKNTVYLQMNSLKPEDTAVYYCARRRHHVIWYGYWGQGTQVTVSS | low polyreactivity
22 | QVQLVESGGGLVQAGGRLRLSCAASGITFTVFAMGWYRQAPGKERELVAAISQSGGSTYYADSVKGRFTISRDNAKNTVYLQMNILNPEDTAVYYCAKTLPSNGHYDYWGQGTQVTVSS | low polyreactivity
23 | QVQLVESGGGLVQAGGSLRLSCAASGNIFRNNAMGWYRQAPGKERELVAAISRGGSTYYADSVKGRFTISRDNAKNTVYLQMNSLKPEDTAVYYCNKYSSRAYNYWGQGTQVTVSS | high polyreactivity
24 | QVQLVESGGGLVQAGGSLRLSCAASGITIYKYAMGWYRQAPGKERELVAAITRGGSTNYADSVKGRFTISRDNAKNTVYLQMNSLKPEDTAVYYCNKVYHWQSPGFGYGYWGQGSQVTVSS | high polyreactivity
25 | QGQLVESGGGLGQEGGSLRLICAASGNTFDYYVMGWYRQAPGKERELVAVITSGSSTYYADSVKGRFTISRDNAKNTVFFQMNSLQPEDTAVYYCAKTTRRPGLRSYDYWGQGTQVTVSS | high polyreactivity
26 | QVQLVESGGGLVQAGGSLRLSCAASGRIFDWYAMGWYRQAPGKERELVAAISTSGANTYYADSVKGRITISRDNAKNTVYLQMNSLKPEDSGVYYCATDPYQPYEGDYWGQGTQVTVSS | low polyreactivity
27 | QVQLVESGGGLVQAGGSLRLSCAASGRISKKYAMGWYRQAPGKERELVAAIRGSGGGTYYADSVKGRFTISRDNAKNTVYLQMNSLKPEDTAVYYCNAASRHSTAPITGYDSWGQGTQVTVSS | high polyreactivity
28 | QVQLVESGGGLVQAGGSLRLSCAASGRTFAYNAMGWYRQAPGKERELVAAISSSGGSTYYADSVKGRFTISRDNAKNTVYLQMNSLKPEDTAGYYCATQGFSWAHGSDYWGQGTQVTVSS | low polyreactivity
29 | QVQLVESAGGLVQAGGSLSISCAASGLTLTRNAMGWYRQAPGKERELVAAISGRGGSTYYADSVKGRFTISRDNAKNTVYLQMNSLKPEDTAVYYCAATVQYSPIYDYWGQGTQVTVSS | high polyreactivity
30 | QVQLVESGGGLVQAGGSLRLSCAASGSIFGGNTMGWYRQAPGKERELVAAISWSGGRTYYADSVKGRFTISRDNAKNTVYLQMNSLKPEDTAVYYCAATFRGVLGWYHYEYWGQGTQVTVSS | high polyreactivity
31 | QVQLVESAGGVVQAGGSLRLSCAASGRIFGYNTMGWYRQAPGKERELVAAISGSGASTYYADSVKGRFTISRDNAKNTVYLQMNSLKAEDTAVYYCAAKAYYSTSPYHREHDSWGQGTQVTVSS | low polyreactivity
32 | QVQLVESGGGLVQAGGSLRLSCAASGRIFWYNAMGWYRQAPGKERELVAAISSGGSTSYADSVKGRFTISRDNAKNTVYLQMNSLKPEDTAVYYCAKDDERKQGQYPPYDSWGQGTQVTVSS | low polyreactivity
